From IntAct's records for PubMed 21708944

B1: Chromosomal replication initiator protein DnaA (Escherichia coli (strain K12)), P03004 (parent)
chain: MSLSLWQQCLARLQDELPATEFSMWIRPLQAELSDNTLALYAPNRFVLDWVRDKYLNNINGLLTSFCGADAPQLRFEVGTKPVTQTPQAAVTSNVAAPAQVAQTQPQRAAPSTRSGWDNVPAPAEPTYRSNVNVKHTFDNFVEGKSNQLARAAARQVADNPGGAYNPLFLYGGTGLGKTHLLHAVGNGIMARKPNAKVVYMHSERFVQDMVKALQNNAIEEFKRYYRSVDALLIDDIQFFANKERSQEEFFHTFNALLEGNQQIILTSDRYPKEINGVEDRLKSRFGWGLTVAIEPPELETRVAILMKKADENDIRLPGEVAFFIAKRLRSNVRELEGALNRVIANANFTGRAITIDFVREALRDLLALQEKLVTIDNIQKTVAEYYKIKVADLLSKRRSRSVARPRQMAMALAKELTNHSLPEIGDAFGGRDHTTVLHACRKIEQLREESHDIKEDFSNLIRTLSS
partner: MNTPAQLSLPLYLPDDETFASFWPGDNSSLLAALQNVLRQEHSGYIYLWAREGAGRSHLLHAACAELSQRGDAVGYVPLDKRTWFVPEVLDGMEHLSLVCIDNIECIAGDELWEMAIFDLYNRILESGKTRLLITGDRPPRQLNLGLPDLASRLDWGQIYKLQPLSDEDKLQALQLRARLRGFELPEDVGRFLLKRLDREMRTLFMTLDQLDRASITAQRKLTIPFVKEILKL

Variants of: B1
Conditions: with hda_ecoli hda

Effect of a mutation on the interaction, decreasing interaction:
MSLSLWQQCLARLQDELPATEFSMWIRPLQAELSDNTLALYAPNRFVLDWVRDKYLNNINGLLTSFCGADAPQLRFEVGTKPVTQTPQAAVTSNVAAPAQVAQTQPQRAAPSTRSGWDNVPAPAEPTYRSNVNVKHTFDNFVEGKSNQLARAAARQVADNPGGAYNPLFLYGGTGLGKTHLLHAVGNGIMARKPNAKVVYMHSERFVQDMVKALQNNAIEEFKRYYRSVDALLIDDIQFFANKERSQEEFFHTFNALLEGNQQIILTSDRYPKEINGVEDRLKSRFGWGLTVAIEPPELETRVAILMKKADENDIRLPGEVAFFIAKRLRSNVRELEGALNRVIANANFTGRAITIDFVREALRDLLALQEKLVTIDNIQKTVAEYYKIKVADLLSKRRSRSVARPRQMAMALAKELTNHSAPEIGDAFGGRDHTTVLHACRKIEQLREESHDIKEDFSNLIRTLSS [L422A]
MSLSLWQQCLARLQDELPATEFSMWIRPLQAELSDNTLALYAPNRFVLDWVRDKYLNNINGLLTSFCGADAPQLRFEVGTKPVTQTPQAAVTSNVAAPAQVAQTQPQRAAPSTRSGWDNVPAPAEPTYRSNVNVKHTFDNFVEGKSNQLARAAARQVADNPGGAYNPLFLYGGTGLGKTHLLHAVGNGIMARKPNAKVVYMHSERFVQDMVKALQNNAIEEFKRYYRSVDALLIDDIQFFANKERSQEEFFHTFNALLEGNQQIILTSDRYPKEINGVEDRLKSRFGWGLTVAIEPPELETRVAILMKKADENDIRLPGEVAFFIAKRLRSNVRELEGALNRVIANANFTGRAITIDFVREALRDLLALQEKLVTIDNIQKTVAEYYKIKVADLLSKRRSRSVARPRQMAMALAKELTNHSGPEIGDAFGGRDHTTVLHACRKIEQLREESHDIKEDFSNLIRTLSS [L422G]
MSLSLWQQCLARLQDELPATEFSMWIRPLQAELSDNTLALYAPNRFVLDWVRDKYLNNINGLLTSFCGADAPQLRFEVGTKPVTQTPQAAVTSNVAAPAQVAQTQPQRAAPSTRSGWDNVPAPAEPTYRSNVNVKHTFDNFVEGKSNQLARAAARQVADNPGGAYNPLFLYGGTGLGKTHLLHAVGNGIMARKPNAKVVYMHSERFVQDMVKALQNNAIEEFKRYYRSVDALLIDDIQFFANKERSQEEFFHTFNALLEGNQQIILTSDRYPKEINGVEDRLKSRFGWGLTVAIEPPELETRVAILMKKADENDIRLPGEVAFFIAKRLRSNVRELEGALNRVIANANFTGRAITIDFVREALRDLLALQEKLVTIDNIQKTVAEYYKIKVADLLSKRRSRSVARPRQMAMALAKELTNHSLAEIGDAFGGRDHTTVLHACRKIEQLREESHDIKEDFSNLIRTLSS [P423A]
